The results in this text go back to patent US20100041596A1.

Common to all, as to settings: remark: other sources report otherwise
Experiment [1] has as its target T1, Fas fusion proteins with the death domain (CFP and YFP) (Homo sapiens (Human)), P25445.
T1 chain: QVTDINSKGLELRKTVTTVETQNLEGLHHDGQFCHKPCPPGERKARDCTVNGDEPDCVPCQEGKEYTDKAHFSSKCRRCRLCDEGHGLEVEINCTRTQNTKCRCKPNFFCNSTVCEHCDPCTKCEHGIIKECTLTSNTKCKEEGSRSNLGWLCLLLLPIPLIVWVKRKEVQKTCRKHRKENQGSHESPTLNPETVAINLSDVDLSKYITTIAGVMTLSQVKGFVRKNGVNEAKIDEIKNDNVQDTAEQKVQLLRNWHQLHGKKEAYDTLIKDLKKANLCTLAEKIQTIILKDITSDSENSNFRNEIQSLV
Description: CFP dequenching after YFP photobleaching, microscope.

Experiment [2] addresses T2, native Fas receptor of H9 lymphoma cells (Homo sapiens (Human)), P25445.
T2 chain: T1 chain
Description: DTSSP crosslinking of H9 cells, deglycosylated lysates, anti-Fas blot.

For experiment [3], the target named is T3, p60 TNFR, full-length (Homo sapiens (Human)), P19438.
T3 chain: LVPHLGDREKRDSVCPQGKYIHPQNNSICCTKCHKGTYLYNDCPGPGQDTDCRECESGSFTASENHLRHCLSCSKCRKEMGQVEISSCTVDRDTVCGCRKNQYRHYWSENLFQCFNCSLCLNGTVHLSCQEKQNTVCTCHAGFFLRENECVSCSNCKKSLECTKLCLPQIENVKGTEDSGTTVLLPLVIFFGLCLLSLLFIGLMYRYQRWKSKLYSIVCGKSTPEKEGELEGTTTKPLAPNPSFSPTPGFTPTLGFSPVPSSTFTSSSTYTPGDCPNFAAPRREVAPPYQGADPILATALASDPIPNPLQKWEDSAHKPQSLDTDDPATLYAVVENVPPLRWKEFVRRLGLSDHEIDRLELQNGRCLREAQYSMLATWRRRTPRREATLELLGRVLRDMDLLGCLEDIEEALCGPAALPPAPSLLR
Description: DTSSP crosslinking of H9 cells with or without TNFα, non-reducing gel, anti-p60 blot.

B1: Fas fusion proteins with the death domain (CFP and YFP), P25445 26-335 (receptor, not shown: large carriers)
chain: T1 chain
B1 showed an FRET efficiency (E%) in experiment [1] of 27%.

B2: native Fas receptor of H9 lymphoma cells, P25445 26-335 (receptor)
chain: T1 chain
Take B2: the percent of chains cross-linked as trimers (densitometry) in experiment [2] was determined as 60%.

B3: p60 TNFR, full-length, P19438 30-455 (receptor)
chain: T3 chain
As for B3, in experiment [3], the percent of chains cross-linked as apparent trimers and higher order complexes was in the range of 15 to 20%.
